Data as given in publication PMC11006747, “The E3 ubiquitin ligase ITCH negatively regulates intercellular communication via gap junctions by targeting connexin43 for lysosomal degradation” (Cellular and Molecular Life Sciences: CMLS, 2024).

Biological target: T1, Cx43-WT (human connexin43, transiently expressed) (human, UniProt P17302 1-382)
T1 construct: human connexin43 (Cx43; gene GJA1) from the expression plasmid pcDNA I/Neo; source: HeLa cells negative for Cx43, transfected (pcDNA I/Neo), in lysate
Assay: co-IP; lysates of HeLa cells negative for Cx43, co-transfected 48 h with Cx43-WT or Cx43-P283A and HA-ITCH-WT, immunoprecipitated with anti-Cx43 antibodies cross-linked to protein A-Sepharose, 2 h at 4 °C; HA-ITCH detected by western blot with anti-HA and normalised to Cx43 in the immunoprecipitate; in one experiment cells treated with DMSO or bafilomycin A1 (200 nM) for the last 18 h; rabbit IgG as control
Conditions: partners not purified

T1 sequence (P17302 whole entry): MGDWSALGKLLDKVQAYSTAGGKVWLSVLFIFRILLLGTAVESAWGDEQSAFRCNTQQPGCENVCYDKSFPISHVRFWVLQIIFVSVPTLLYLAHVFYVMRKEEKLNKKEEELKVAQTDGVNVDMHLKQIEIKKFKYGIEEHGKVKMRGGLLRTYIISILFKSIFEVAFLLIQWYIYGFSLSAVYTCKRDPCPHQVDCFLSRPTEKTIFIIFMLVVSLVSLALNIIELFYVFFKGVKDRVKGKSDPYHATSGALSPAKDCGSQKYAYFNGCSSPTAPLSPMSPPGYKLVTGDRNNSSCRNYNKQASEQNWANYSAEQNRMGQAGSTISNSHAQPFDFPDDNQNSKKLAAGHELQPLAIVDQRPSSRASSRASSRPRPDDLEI

B1: HA-ITCH-wild type (enzyme)
chain: not shown
notes: E3 ubiquitin ligase ITCH, wild type, gene synthesised (GeneArt, Thermo Fisher); Isoform inferred only from the printed number of the catalytic cysteine (C830A mutant of the same cDNA); also called HA-ITCH-WT; source: HeLa cells negative for Cx43, transfected (pcDNA3.4-TOPO), in lysate
fold increase of co-immunoprecipitated HA-ITCH with bafilomycin A1 against DMSO: ~4 fold
